From US20160032013A1 (Genentech, published 2016) come the findings set out here.

As a reminder, the Kd is the concentration at which binding is half-saturated. As a reminder, the koff is a measure of how fast the partners let go of each other. The term kon denotes the second-order rate constant of association.

The target of experiment [1] is T1, Mouse RON-hIgG1 Fc (murine RON Sema/PSI/IPT1, natural leader + R33-V684, fused to human IgG1 Fc) (mouse).
T1 construct: also called mRON-hFc; murine RON-Fc
Kind of experiment: SPR (Biacore), anti-Fc chip; legend names murine RON-Fc; the sheet's scheme ('RON or MSP' over 'MSP-Fc or RON-Fc') and have the MSPβ-Fc fusion captured and soluble RON-His injected. The protocol:
Binding kinetics of RON to MSP β-Fc fusion proteins and MSP proteins to RON-Fc fusions were determined using a Biacore 3000 optical biosensor equipped with a research-grade CM5 sensor chip (GE Healthcare). Amine coupling reagents, N-ethyl-N′-dimethylamino-propylcarbodiimide (EDC), N-hydroxy-succinimide (NHS) and sodium ethanolamine HCl, pH 8.5, were obtained from GE Healthcare. Standard coupling protocols were used to tether a rabbit anti-human IgG1 or rabbit anti-murine IgG2a (Jackson ImmunoResearch Laboratories) onto the biosensor surface. A biosensor chip that was subjected to the amine coupling procedure with no protein coupled was used to correct for non-specific binding. […] Various concentrations (500-3.9 nM, 2-fold dilution series) of RON-His, were injected in HBS-P buffer (10 mM HEPES, pH 7.5, 150 mM NaCl, 0.005% P20) at 25° C. with a flow rate of 30 μL/min and dissociation monitored for 240 sec. Between measurements, the biosensor surfaces were regenerated with a 120 s pulse of 10 mM glycine-HCl pH 1.5 followed by a 120 s wash with running buffer.
(In general: SPR reads the build-up and loss of mass on a sensor chip optically.)

For experiment [2], the target named is T2, Human RON-hIgG1 Fc (RON Sema/PSI/IPT1 fused to human IgG1 Fc) (human).
T2 construct: also called RON-Fc; hRON-Fc
Kind of experiment: BLI using RON-Fc at 30 C. The protocol:
Real-time kinetic measurements of MSP binding to RON were conducted using an Octet RED384 (ForteBio, Inc). Samples or buffer were dispensed into 96-well microtiter plates (Greiner Bio-One North America, Inc.) at a volume of 200 μl per well. Anti-human IgG Fc Biosensors were used for the experiments. Each experiment consisted of three steps: incubation with ForteBio Kinetic buffer diluted 1:10 in PBS assay buffer to establish an equilibrium for 120 s (baseline), incubation with 10 μg/ml RON-Fc in assay buffer to coat the biosensor with binding target for 900 s (load), incubation with MSP, MSP β or scMSP in assay buffer containing various concentrations (75-4.7 nM, 2-fold dilution series) for 400 s (association), and incubation with assay buffer to measure the off-rate of MSP for 400 s (dissociation). Operating temperature was maintained at 30° C. Data were generated automatically by the Octet Data Acquisition 7.0 software. Each data set was fitted globally to a simple one-to-one binding model using ForteBio Analysis Software 7.0 to determine the kinetic parameters kₐ and kd. The equilibrium dissociation constants (KD) were then calculated as a ratio (koff/kₒₙ) of these rate constants.

For experiment [3], the target named is T2, Human RON-hIgG1 Fc (RON Sema/PSI/IPT1 …). Kind of experiment: SPR capturing RON-Fc at 25 C. The protocol:
To determine MSP protein binding kinetics to hRON-Fc or mRON-Fc fusion proteins, between 50 and 100 response units (RU) were captured on each of three immobilized anti-human Fc surfaces. Various concentrations (50-0.78 nM, 2-fold dilution series) of MSP, MSP β, MSP α or scMSP were injected in HBS-P buffer (10 mM HEPES, pH 7.5, 150 mM NaCl, 0.005% P20) at 25° C. with a flow rate of 30 μL/min and dissociation monitored for 4 min. Between measurements, the biosensor surfaces were regenerated with a 2 min pulse of 10 mM glycine-HCl pH 1.5.

For experiment [4], the target named is T3, Recombinant human RON Sema/PSI (residues E25-P568) with C-terminal His-tag (human, UniProt Q04912 25-568).
T3 construct: Made in Trichoplusia ni insect cells
Kind of experiment: SPR using immobilized RON Sema/PSI at 25 C.

Changes are numbered by the printed parent chain. Names may count otherwise.

T1 sequence (chain, as listed by the source limits assumed): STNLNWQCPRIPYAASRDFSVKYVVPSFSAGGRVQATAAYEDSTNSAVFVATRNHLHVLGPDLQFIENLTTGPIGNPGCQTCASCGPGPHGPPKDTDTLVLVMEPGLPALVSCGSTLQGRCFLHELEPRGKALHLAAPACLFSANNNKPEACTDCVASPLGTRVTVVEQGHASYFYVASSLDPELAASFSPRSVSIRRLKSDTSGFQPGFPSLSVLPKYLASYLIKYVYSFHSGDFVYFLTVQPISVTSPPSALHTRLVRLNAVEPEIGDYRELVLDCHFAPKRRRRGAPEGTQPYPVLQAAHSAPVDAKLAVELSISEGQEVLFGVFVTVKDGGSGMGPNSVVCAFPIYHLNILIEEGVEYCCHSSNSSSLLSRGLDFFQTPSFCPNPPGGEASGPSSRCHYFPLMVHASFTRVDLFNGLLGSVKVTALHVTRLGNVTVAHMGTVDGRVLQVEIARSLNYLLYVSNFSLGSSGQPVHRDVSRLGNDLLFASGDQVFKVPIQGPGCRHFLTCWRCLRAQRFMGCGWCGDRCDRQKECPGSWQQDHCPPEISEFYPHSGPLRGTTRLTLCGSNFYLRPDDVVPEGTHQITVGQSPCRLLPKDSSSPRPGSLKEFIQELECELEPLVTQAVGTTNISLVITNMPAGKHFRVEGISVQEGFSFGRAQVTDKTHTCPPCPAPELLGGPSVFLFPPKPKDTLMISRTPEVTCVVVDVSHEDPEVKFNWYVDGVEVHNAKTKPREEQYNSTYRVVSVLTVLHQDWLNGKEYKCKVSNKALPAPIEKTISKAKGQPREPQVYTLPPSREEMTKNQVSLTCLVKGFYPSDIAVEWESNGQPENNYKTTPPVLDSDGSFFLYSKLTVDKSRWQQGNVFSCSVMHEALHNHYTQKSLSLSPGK
T2 sequence (chain, as listed by the source limits assumed): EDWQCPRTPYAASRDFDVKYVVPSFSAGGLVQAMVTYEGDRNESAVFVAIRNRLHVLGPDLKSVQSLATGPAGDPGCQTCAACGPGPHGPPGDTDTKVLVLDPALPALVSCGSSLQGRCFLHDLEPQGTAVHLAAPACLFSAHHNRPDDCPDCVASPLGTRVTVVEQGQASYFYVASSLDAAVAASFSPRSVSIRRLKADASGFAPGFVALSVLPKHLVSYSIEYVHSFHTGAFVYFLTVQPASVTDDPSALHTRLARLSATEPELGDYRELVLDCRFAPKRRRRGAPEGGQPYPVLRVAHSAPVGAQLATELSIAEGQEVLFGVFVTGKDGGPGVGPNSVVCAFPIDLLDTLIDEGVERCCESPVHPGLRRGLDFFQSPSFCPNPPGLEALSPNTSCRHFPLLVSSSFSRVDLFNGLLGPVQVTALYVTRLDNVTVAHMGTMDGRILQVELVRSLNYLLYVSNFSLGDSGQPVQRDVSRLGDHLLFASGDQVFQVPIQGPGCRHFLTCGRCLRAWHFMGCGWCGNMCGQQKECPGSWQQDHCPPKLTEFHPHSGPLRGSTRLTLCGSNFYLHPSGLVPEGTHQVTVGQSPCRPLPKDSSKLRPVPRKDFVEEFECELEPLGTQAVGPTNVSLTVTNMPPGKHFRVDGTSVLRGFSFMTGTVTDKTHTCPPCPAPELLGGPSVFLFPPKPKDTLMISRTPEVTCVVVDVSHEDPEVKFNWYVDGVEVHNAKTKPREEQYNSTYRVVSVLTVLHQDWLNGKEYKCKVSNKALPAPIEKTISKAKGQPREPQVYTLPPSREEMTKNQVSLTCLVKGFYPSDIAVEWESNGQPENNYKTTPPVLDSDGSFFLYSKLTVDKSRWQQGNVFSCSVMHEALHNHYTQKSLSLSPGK

B1: m.L12.m DANA (Fc fusion)
MSP β-linker-Fc fusion chain: VVGGHPGNSPWTVSLRNRQGQHFCGGSLVKEQWVLTARQCIWSCHEPLTGYEVWLGTINQNPQPGEANLQRVPVAKAVCGPAGSQLVLLKLERPVILNHHVALIALPPEQYVVPPGTKCEIAGWGESIGTSNNTVLHVASMNVISNQECNTKYRGHIQESEICTQGLVVPVGACEGDYGGPLACYTHDAWVLQGLIIPNRVCARPRWPAIFTRVSVFVDWINKVMQLEKKIEPRGPTIKPCPPCKCPAPNLLGGPSVFIFPPKIKDVLMISLSPIVTCVVVAVSEDDPDVQISWFVNNVEVHTAQTQTHREDYASTLRVVSALPIQHQDWMSGKEFKCKVNNKDLPAPIERTISKPKGSVRAPQVYVLPPPEEEMTKKQVTLTCMVTDFMPEDIYVEWTNNGKTELNYKNTEPVLDSDGSYFMYSKLRVEKKNWVERNSYSCSVVHEGLHNHHTTKSFSRTPGK
notes: As m12m, with the DANA mutations in the Fc; also called m12m (DANA); Mouse MSP β-L12-mIgG2a Fc (DANA)
As for B1, in experiment [1], the Kd came out at 9.7 nM.

B2: m.L16.m DANA (Fc fusion)
MSP β-linker-Fc fusion chain: VVGGHPGNSPWTVSLRNRQGQHFCGGSLVKEQWVLTARQCIWSCHEPLTGYEVWLGTINQNPQPGEANLQRVPVAKAVCGPAGSQLVLLKLERPVILNHHVALIALPPEQYVVPPGTKCEIAGWGESIGTSNNTVLHVASMNVISNQECNTKYRGHIQESEICTQGLVVPVGACEGDYGGPLACYTHDAWVLQGLIIPNRVCARPRWPAIFTRVSVFVDWINKVMQLEQVTDKKIEPRGPTIKPCPPCKCPAPNLLGGPSVFIFPPKIKDVLMISLSPIVTCVVVAVSEDDPDVQISWFVNNVEVHTAQTQTHREDYASTLRVVSALPIQHQDWMSGKEFKCKVNNKDLPAPIERTISKPKGSVRAPQVYVLPPPEEEMTKKQVTLTCMVTDFMPEDIYVEWTNNGKTELNYKNTEPVLDSDGSYFMYSKLRVEKKNWVERNSYSCSVVHEGLHNHHTTKSFSRTPGK
notes: As m16m, with the DANA mutations in the Fc; also called m16m (DANA); Mouse MSP β-L16-mIgG2a Fc (DANA)
For B2, in experiment [1], the Kd worked out at 6.6 nM.

B3: m.L8.m DANA (Fc fusion)
MSP β-linker-Fc fusion chain: VVGGHPGNSPWTVSLRNRQGQHFCGGSLVKEQWVLTARQCIWSCHEPLTGYEVWLGTINQNPQPGEANLQRVPVAKAVCGPAGSQLVLLKLERPVILNHHVALIALPPEQYVVPPGTKCEIAGWGESIGTSNNTVLHVASMNVISNQECNTKYRGHIQESEICTQGLVVPVGACEGDYGGPLACYTHDAWVLQGLIIPNRVCARPRWPAIFTRVSVFVDWINKVMQLEPRGPTIKPCPPCKCPAPNLLGGPSVFIFPPKIKDVLMISLSPIVTCVVVAVSEDDPDVQISWFVNNVEVHTAQTQTHREDYASTLRVVSALPIQHQDWMSGKEFKCKVNNKDLPAPIERTISKPKGSVRAPQVYVLPPPEEEMTKKQVTLTCMVTDFMPEDIYVEWTNNGKTELNYKNTEPVLDSDGSYFMYSKLRVEKKNWVERNSYSCSVVHEGLHNHHTTKSFSRTPGK
notes: As m8m, with the DANA mutations in the Fc; also called m8m (DANA); Mouse MSP β-L8-mIgG2a Fc (DANA)
Regarding B3, in experiment [1], the equilibrium dissociation constant (Kd) came out at 5 nM.

B4: Human MSP β R689C (HGF leader + V484-G711 + C588S + C672A + R689C + His tag) (ligand)
chain: VVGGHPGNSPWTVSLRNRQGQHFCGGSLVKEQWILTARQCFSSCHMPLTGYEVWLGTLFQNPQHGEPSLQRVPVAKMVCGPSGSQLVLLKLERSVTLNQRVALISLPPEWYVVPPGTKCEIAGWGETKGTGNDTVLNVALLNVISNQECNIKHRGRVRESEMCTEGLLAPVGACEGDYGGPLACFTHNAWVLEGIIIPNRVCARSCWPAVFTRVSVFVDWIHKVMRLGHHHHHH
notes: This is an inference
Take B4: in experiment [2], binding was put at a Kd of 9.1 nM, the koff was 0.0093 s⁻¹ and the kon is 1.75e+06 M⁻¹ s⁻¹. In experiment [3], the Kd was 9 nM, the koff came to 0.0479 s⁻¹ and the on-rate constant (kon) was 5.75e+06 M⁻¹ s⁻¹. Besides, in experiment [4], the Kd was found to be 9.1 nM, the koff came to 0.0142 s⁻¹ and the kon stood at 1.3e+06 M⁻¹ s⁻¹.

B5: m.L4.m DANA (Fc fusion)
MSP β-linker-Fc fusion chain: VVGGHPGNSPWTVSLRNRQGQHFCGGSLVKEQWVLTARQCIWSCHEPLTGYEVWLGTINQNPQPGEANLQRVPVAKAVCGPAGSQLVLLKLERPVILNHHVALIALPPEQYVVPPGTKCEIAGWGESIGTSNNTVLHVASMNVISNQECNTKYRGHIQESEICTQGLVVPVGACEGDYGGPLACYTHDAWVLQGLIIPNRVCARPRWPAIFTRVSVFVDWINKVMQLETIKPCPPCKCPAPNLLGGPSVFIFPPKIKDVLMISLSPIVTCVVVAVSEDDPDVQISWFVNNVEVHTAQTQTHREDYASTLRVVSALPIQHQDWMSGKEFKCKVNNKDLPAPIERTISKPKGSVRAPQVYVLPPPEEEMTKKQVTLTCMVTDFMPEDIYVEWTNNGKTELNYKNTEPVLDSDGSYFMYSKLRVEKKNWVERNSYSCSVVHEGLHNHHTTKSFSRTPGK
notes: As m4m, with the DANA mutations in the Fc; also called m4m (DANA); Mouse MSP β-L4-mIgG2a Fc (DANA)
With B5, the dissociation constant Kd in experiment [1] amounted to 13.8 nM.

B6: h.L16.m (Fc fusion)
MSP β-linker-Fc fusion chain: VVGGHPGNSPWTVSLRNRQGQHFCGGSLVKEQWILTARQCFSSCHMPLTGYEVWLGTLFQNPQHGEPSLQRVPVAKMVCGPSGSQLVLLKLERSVTLNQRVALISLPPEWYVVPPGTKCEIAGWGETKGTGNDTVLNVALLNVISNQECNIKHRGRVRESEMCTEGLLAPVGACEGDYGGPLACFTHNAWVLEGIIIPNRVCARSRWPAVFTRVSVFVDWIHKVMRLGQVTDKKIEPRGPTIKPCPPCKCPAPNLLGGPSVFIFPPKIKDVLMISLSPIVTCVVVDVSEDDPDVQISWFVNNVEVHTAQTQTHREDYNSTLRVVSALPIQHQDWMSGKEFKCKVNNKDLPAPIERTISKPKGSVRAPQVYVLPPPEEEMTKKQVTLTCMVTDFMPEDIYVEWTNNGKTELNYKNTEPVLDSDGSYFMYSKLRVEKKNWVERNSYSCSVVHEGLHNHHTTKSFSRTPGK
notes: Human MSP β joined by a 16-residue linker to murine IgG2a Fc; also called h16m; Human MSP β-L16-mIgG2a Fc
With B6, the Kd in experiment [1] worked out at 11.6 nM.

B7: h.L16.m DANA (Fc fusion)
MSP β-linker-Fc fusion chain: B6 MSP β-linker-Fc fusion chain with A189S, D286A, N318A
notes: As h16m, with the D265A and N297A (DANA) mutations in the Fc; also called h16m (DANA); Human MSP β-L16-mIgG2a Fc (DANA)
As for B7, the Kd in experiment [1] was 10.9 nM.
